According to PMC6004266:

Target: Alternative Complex III from Flavobacterium johnsoniae (Flavobacterium johnsoniae (endogenous, ATCC 17061 strain UW101))
Experiment: cryo-EM structure

**Q.** “aa3-type cytochrome c oxidase from Flavobacterium johnsoniae (complex)” was tested. Which stoichiometry N (ACIII:cyt aa3) did it give?
**A.** 1
